T1: PUF4 RNA-binding domain (Saccharomyces cerevisiae, UniProt P25339 537-888)
T1 sequence: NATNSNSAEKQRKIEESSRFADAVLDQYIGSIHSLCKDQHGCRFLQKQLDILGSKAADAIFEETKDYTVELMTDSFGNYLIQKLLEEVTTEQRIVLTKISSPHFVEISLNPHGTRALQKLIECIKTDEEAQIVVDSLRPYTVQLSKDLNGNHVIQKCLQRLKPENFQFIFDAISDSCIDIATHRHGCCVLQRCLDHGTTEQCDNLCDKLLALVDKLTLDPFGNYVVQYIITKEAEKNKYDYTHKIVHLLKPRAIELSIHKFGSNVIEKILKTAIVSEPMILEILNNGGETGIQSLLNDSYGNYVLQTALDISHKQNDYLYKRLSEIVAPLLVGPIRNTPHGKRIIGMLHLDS

B1: Ib_S2_P3E.1_K3.1_C3.1_H3.1_A3.1_[A6G]_F3.1_[A8C]_T3.1 (ssRNA)
RNA: UUUGAUUAAUAUGAUAUCGUUCUUUCUUGUAUGUCUUCUUUCUCGAUAUCAUAUUAAUCUUU
B2: Ib_S2_P3E.1_K3.1_C3.1_H3.1_A3.1_[A6T]_F3.1_[A8C]_T3.1 (ssRNA)
RNA: B1 RNA with G33U
B3: Ic_S2_P3E.1_K3.1_C3.1_H3.1_A3.1_[A6C]_F3.1_[A8T]_T3.1 (ssRNA)
RNA: B1 RNA with G33C, C35U
B4: Ib_S2_P3E.1_K3.1_C3.1_H3.1_A3.1_[A6G]_F3.1_[A8T]_T3.1 (ssRNA)
RNA: B1 RNA with C35U
B5: Ic_S2_P3E.1_K3.1_C3.1_H3.1_A3.1_[A6C]_F3.1_[A8C]_T3.1 (ssRNA)
RNA: B1 RNA with G33C
B6: Ie_S2_P4E.1_K4.1_C4.1_H4.1_[+3CTCTC]_A4.1_F4.1_T4.1 (ssRNA)
RNA: UUUGAUUAAUAUGAUAUCGUUCUUUCUUGUCUCUCAUAUUAUUCUUUCUCGAUAUCAUAUUAAUCUUU
B7: Ie_S2_P5E.1_K5.1_C5.1_H5.1_A5.1_[+5TTCC]_F5.1_T5.1 (ssRNA)
RNA: B6 RNA with C31A, C33U, A36C
B8: Ie_S2_P4E.1_K4.1_C4.1_H4.1_A4.1_[+5TCTCT]_F4.1_T4.1 (ssRNA)
RNA: B6 RNA with C31A, C33U, U34C, C35U, A36C
B9: Ie_S2_P4E.1_K4.1_C4.1_H4.1_[+3CCCTT]_A4.1_F4.1_T4.1 (ssRNA)
RNA: B6 RNA with U32C, C35U
B10: Ie_S2_P4E.1_K4.1_C4.1_H4.1_[+4CCTCT]_A4.1_F4.1_T4.1 (ssRNA)
RNA: B6 RNA with C31A, U32C, A36U
B11: Ie_S2_P4E.1_K4.1_C4.1_H4.1_[+4TTCCT]_A4.1_F4.1_T4.1 (ssRNA)
RNA: B6 RNA with C31A, C33U, U34C, A36U
B12: Ie_S2_P4E.1_K4.1_C4.1_H4.1_[+4TCTCT]_A4.1_F4.1_T4.1 (ssRNA)
RNA: B6 RNA with C31A, A36U
B13: Ie_S2_P4E.1_K4.1_C4.1_H4.1_[+3TCTCT]_A4.1_F4.1_T4.1 (ssRNA)
RNA: B6 RNA with C31U, U32C, C33U, U34C, C35U
B14: Ie_S2_P5E.1_K5.1_C5.1_H5.1_A5.1_[+5CCTC]_F5.1_T5.1 (ssRNA)
RNA: B6 RNA with C31A, U34C, C35U, A36C
B15: Ie_S2_P5E.1_K5.1_C5.1_H5.1_A5.1_[+5CCCT]_F5.1_T5.1 (ssRNA)
RNA: B6 RNA with C31A, U34C, A36U
B16: Ie_S2_P4E.1_K4.1_C4.1_H4.1_[+3TTCCT]_A4.1_F4.1_T4.1 (ssRNA)
RNA: B6 RNA with C31U, U34C, C35U
B17: Ie_S2_P4E.1_K4.1_C4.1_H4.1_[+4CTCTC]_A4.1_F4.1_T4.1 (ssRNA)
RNA: B6 RNA with C31A, U32C, C33U, U34C, C35U, A36C
B18: Ie_S2_P4E.1_K4.1_C4.1_H4.1_[+4CCCTT]_A4.1_F4.1_T4.1 (ssRNA)
RNA: B6 RNA with C31A, U32C, U34C, C35U, A36U
B19: Ie_S2_P4E.1_K4.1_C4.1_H4.1_A4.1_[+5CT]_F4.1_T4.1 (ssRNA)
RNA: UUUGAUUAAUAUGAUAUCGUUCUUUCUUGUAUCUAUUAUUCUUUCUCGAUAUCAUAUUAAUCUUU
B20: Ie_S2_P4E.1_K4.1_C4.1_H4.1_A4.1_[+5CC]_F4.1_T4.1 (ssRNA)
RNA: B19 RNA with U34C
B21: Ie_S2_P5E.1_K5.1_C5.1_H5.1_[+4T]_A5.1_F5.1_T5.1 (ssRNA)
RNA: B19 RNA with C33U
B22: Ie_S2_P4E.1_K4.1_C4.1_H4.1_A4.1_[+6CT]_F4.1_T4.1 (ssRNA)
RNA: B19 RNA with C33A, U34C, A35U
B23: Ie_S2_P4E.1_K4.1_C4.1_H4.1_A4.1_[+6TC]_F4.1_T4.1 (ssRNA)
RNA: B19 RNA with C33A, A35C
B24: Ie_S2_P5E.1_K5.1_C5.1_H5.1_A5.1_[+6C]_F5.1_T5.1 (ssRNA)
RNA: B19 RNA with C33U, U34C
B25: Ie_S2_P4E.1_K4.1_C4.1_H4.1_A4.1_[+7TT]_F4.1_T4.1 (ssRNA)
RNA: B19 RNA with C33A, A35U
B26: Ie_S2_P4E.1_K4.1_C4.1_H4.1_[+3CCTC]_A4.1_F4.1_T4.1 (ssRNA)
RNA: UUUGAUUAAUAUGAUAUCGUUCUUUCUUGUCCUCAUAUUAUUCUUUCUCGAUAUCAUAUUAAUCUUU
B27: Ie_S2_P4E.1_K4.1_C4.1_H4.1_[+3CCCT]_A4.1_F4.1_T4.1 (ssRNA)
RNA: B26 RNA with U33C, C34U
B28: Ie_S2_P4E.1_K4.1_C4.1_H4.1_A4.1_[+5TTCC]_F4.1_T4.1 (ssRNA)
RNA: B26 RNA with C31A, C32U, C34U, A35C, U36C
B29: Ie_S2_P5E.1_K5.1_C5.1_H5.1_A5.1_[+6CTC]_F5.1_T5.1 (ssRNA)
RNA: B26 RNA with C31A, C32U, A35U, U36C
B30: Ie_S2_P4E.1_K4.1_C4.1_H4.1_A4.1_[+7CTCT]_F4.1_T4.1 (ssRNA)
RNA: B26 RNA with C31A, C32U, U33A, C34U, A35C, A37C
B31: Ie_S2_P4E.1_K4.1_C4.1_H4.1_A4.1_[+5CTCT]_F4.1_T4.1 (ssRNA)
RNA: B26 RNA with C31A, C32U, U33C, C34U, A35C
B32: Ie_S2_P4E.1_K4.1_C4.1_H4.1_A4.1_[+6CTCT]_F4.1_T4.1 (ssRNA)
RNA: B26 RNA with C31A, C32U, U33A, A35U, U36C, A37U
B33: Ie_S2_P4E.1_K4.1_C4.1_H4.1_[+4CCCT]_A4.1_F4.1_T4.1 (ssRNA)
RNA: B26 RNA with C31A, U33C, A35U
B34: Ie_S2_P5E.1_K5.1_C5.1_H5.1_A5.1_[+5TCC]_F5.1_T5.1 (ssRNA)
RNA: B26 RNA with C31A, C32U, A35C
B35: Ie_S2_P4E.1_K4.1_C4.1_H4.1_[+4CCT]_A4.1_F4.1_T4.1 (ssRNA)
RNA: UUUGAUUAAUAUGAUAUCGUUCUUUCUUGUACCUUAUUAUUCUUUCUCGAUAUCAUAUUAAUCUUU
B36: Ie_S2_P4E.1_K4.1_C4.1_H4.1_A4.1_[+6CCT]_F4.1_T4.1 (ssRNA)
RNA: B35 RNA with C32U, C33A, U34C, U35C, A36U
B37: Ie_S2_P4E.1_K4.1_C4.1_H4.1_A4.1_[+7CCT]_F4.1_T4.1 (ssRNA)
RNA: B35 RNA with C32U, C33A, U35C, A36C
B38: Ie_S2_P4E.1_K4.1_C4.1_H4.1_A4.1_[+5TTC]_F4.1_T4.1 (ssRNA)
RNA: B35 RNA with C32U, C33U, U35C
B39: Ie_S2_P5E.1_K5.1_C5.1_H5.1_[+4TC]_A5.1_F5.1_T5.1 (ssRNA)
RNA: B35 RNA with C32U
B40: Ie_S2_P4E.1_K4.1_C4.1_H4.1_A4.1_[+5CTC]_F4.1_T4.1 (ssRNA)
RNA: B35 RNA with C32U, U35C
B41: Ie_S2_P5E.1_K5.1_C5.1_H5.1_[+4TT]_A5.1_F5.1_T5.1 (ssRNA)
RNA: B35 RNA with C32U, C33U
B42: Ie_S2_P4E.1_K4.1_C4.1_H4.1_A4.1_[+5TCC]_F4.1_T4.1 (ssRNA)
RNA: B35 RNA with C32U, C33U, U34C, U35C
B43: Ie_S2_P4E.1_K4.1_C4.1_H4.1_A4.1_F4.1_[+8CTT]_T4.1 (ssRNA)
RNA: B35 RNA with C32U, C33A, A36C
B44: Ie_S2_P5E.1_K5.1_C5.1_H5.1_[+4CT]_A5.1_F5.1_T5.1 (ssRNA)
RNA: B35 RNA with C33U
B45: Ie_S2_P5E.1_K5.1_C5.1_H5.1_A5.1_[+6CT]_F5.1_T5.1 (ssRNA)
RNA: B35 RNA with C32U, C33U, U34C
B46: Ie_S2_P4E.1_K4.1_C4.1_H4.1_[+4TCC]_A4.1_F4.1_T4.1 (ssRNA)
RNA: B35 RNA with C32U, U34C
B47: Ie_S2_P4E.1_K4.1_C4.1_H4.1_A4.1_[+6TTT]_F4.1_T4.1 (ssRNA)
RNA: B35 RNA with C32U, C33A, A36U
B48: If_S2_P5E.1_K5.1_C5.1_H5.1_A5.1_F5.1_T5.1 (ssRNA)
RNA: UUUGAUUAAUAUGAUAUCGUUCUUUCUUGUAUUAUUAUUCUUUCUCGAUAUCAUAUUAAUCUUU

Positions count from the first letter of the chain named. In names and notes the source's numbering stands.

The Kd is the concentration at which binding is half-saturated. Higher therefore signals lower affinity.

The data set deals with T1, PUF4 RNA-binding domain. The data set is described as follows: Mg; RNA-MaP; 20 mM Na-HEPES pH 7.4, 30 mM KOAc, 0.75 mM MgCl2, 0.1% Tween-20, 5% glycerol, 0.1 mg/mL BSA, 2 mM DTT; 25 C; 0.0125-409.6 nM protein. The settings on record: tags: N-His6-TEV cleaved; C-SNAP kept, Cy3B-labelled; label: tethered on chip by stalled RNA polymerase.
B1: binding was characterised by a dissociation constant (Kd) of 90.1 nM.
The value for B2 was 29.3 nM.
Molecule B3 registered a Kd of 9.3 nM.
With B4 the figure was 22.5 nM.
Consider B5, for which the Kd was found to be 15.4 nM.
The value for B6 was 135 nM; that for B7 was 7.16 nM; that for B8 was 7.74 nM.
The value for B9 was 35.8 nM; that for B10 was 5.57 nM; that for B11 was 8 nM.
Molecule B12 came in with a Kd of 7.16 nM.
With B13 the figure was 12 nM; with B14, 10.2 nM; with B15, 11.9 nM.
On to B16, for which the Kd worked out at 17.5 nM.
For B17, binding was put at a Kd of 6.5 nM.
With B18 the figure was 5.28 nM; with B19, 5.74 nM.
Turning to B20, the Kd was found to be 20.2 nM.
B21 displayed a Kd of 11.6 nM.
B22 registered a Kd of 3.75 nM.
With B23 the figure was 4.55 nM; with B24, 25.6 nM; with B25, 2.3 nM.
Turning to B26, the Kd worked out at 106 nM.
The value for B27 was 41.4 nM.
B28: the Kd turned out to be 47.7 nM.
In turn, B29 had a Kd of 18.7 nM.
In the case of B30, the Kd was 12.8 nM.
The value for B31 was 4.51 nM.
Take B32: the Kd is 6.3 nM.
The value for B33 was 1.96 nM; that for B34 was 4.58 nM; that for B35 was 1.13 nM.
The value for B36 was 12.7 nM; that for B37 was 10.6 nM; that for B38 was 29.9 nM.
Consider B39, for which binding was characterised by a dissociation constant (Kd) of 1.55 nM.
As for B40, binding was characterised by a dissociation constant (Kd) of 26.1 nM.
The value for B41 was 1.57 nM; that for B42 was 46.4 nM.
With B43 the figure was 4.6 nM; with B44, 0.922 nM.
The value for B45 was 1.41 nM; that for B46 was 2.35 nM.
Regarding B47, the affinity, expressed as Kd, was 3.88 nM.
With B48 the figure was 1.92 nM.

The record behind these values is publication PMC9352680, “A comprehensive thermodynamic model for RNA binding by the Saccharomyces cerevisiae Pumilio protein PUF4”.
